“Also recorded” adds a separate entry of the source. Where two headings read alike, the source gives them in different places.
Experiments:
B16F10 melanoma [1] = test: advanced subcutaneous B16F10 melanoma (Example VI); assay type: in vivo, mice
Method: In this experiment, IL-18 was evaluated in an advanced syngeneic tumor model alone and in combination with chemotherapy. Mice bearing advanced subcutaneous B16F10 melanoma were treated with IL-18 alone or in combination with either cyclophosphamide or topotecan. Treatment was initiated on Day 11 postimplantation.

B16F10 melanoma [2] = test: advanced subcutaneous B16F10 melanoma, repeat with cyclophosphamide (Example VII); assay type: in vivo, mice; conditions: for regressions: treatment from median 100 mm^3 (Day 14)
[3] = system: mammary adenocarcinoma 16/c; test: subcutaneous mammary adenocarcinoma 16/c, IL-18 and doxorubicin (Example IX); assay type: in vivo, mouse; conditions: for regressions: alone or combined
Method: (§1) An experiment was conducted to determine the effectiveness of IL-18 on its own and in combination with doxorubicin in the 16/c mammary adenocarcinoma tumor model. The 16/c line was implanted subcutaneously at a 1:10 brei and allowed to grow to a median of 52-109 mm^3 before initiation of treatment. Doxorubicin was administered intravenously on Days 12 and 19 at 7.2, 12, and 20 mg/kg. IL-18 was administered subcutaneously at 1, 10, and 100 μg/mouse on a qD×21 schedule starting from Day 12. The endpoints of this study were tumor growth delay and regression.

[4] = mouse, in vivo
Method: as §1

[5] = toxicity and toxic deaths in the 16/c experiment (Example IX)
Method: as §1

[6] = system: Madison 109 lung carcinoma; test: subcutaneous Madison 109 lung carcinoma, IL-18 and paclitaxel (Example VIII); assay type: in vivo, mouse; conditions: for regressions: alone or combined
[7] = paclitaxel 24 mg/kg iv qD×5
MOPC-315 plasmacytoma [8] = test: established subcutaneous MOPC-315 plasmacytoma (Example III); assay type: in vivo, BALB/c mice
Method: The MOPC-315 plasmacytoma is analogous to the human cancer known as multiple myeloma. This tumor is a malignancy of the plasma cells, a mature form of B lymphocytes involved in antibody expression. MOPC-315 grows rapidly to a very large size in syngeneic BALB/c mice. It is not highly metastatic or invasive.
IL-18 was evaluated in mice bearing established subcutaneous MOPC-315 plasmacytoma. In order to increase chances of seeing an effect of immunotherapy, IL-18 was evaluated in combination with an effective chemotherapeutic agent as well as by monotherapy. IL-18 at 0.3, 1, 3, and 10 μg/mouse was administered daily intraperitonealy and topotecan was administered intraperitonealy on a q4D schedule at 9 and 15 mg/kg. Both drugs were started on Day 11 postimplantation when the median tumor volume ranged from 32 to 88 mg. Control tumors took 17.2 days to grow to 1 gram. (See FIGS. 5-7).

MOPC-315 plasmacytoma [9] = test: advanced MOPC-315 plasmacytoma, confirmation with higher IL-18 doses (Example IV); assay type: in vivo, mice
Method: The activity of IL-18 in combination with topotecan in mice bearing advanced MOPC-315 plasmacytoma was confirmed in a large experiment in which higher doses of IL-18 were used. In this experiment, topotecan was administered q4D×6 beginning on Day 10 and IL-18 was given qD×30 beginning on the same day. Both drugs were administered intraperitonealy and activity was assessed by tumor measurements.

Lewis lung carcinoma [10] = system: Lewis lung carcinoma
Method: Treatment was delayed until Day 7 when tumors were established and growing in the lungs. Half of the mice in each group were killed on Day 16 to determine effects of treatment on pulmonary tumor growth, the remaining mice were continued under treatment and monitored for survival. […] Topotecan was administered intraperitonealy q4D×7 beginning on Day 7 and ending on Day 32 and the doses shown are in mg/kg. Murine IL-18 was administered intraperitonealy UID from Day 7 to Day 32 and the doses shown are μg/mouse. There were 3 groups of control animals, all of which died between Day 17 and 30.

Lewis lung carcinoma [11] = test: advanced systemic Lewis lung carcinoma, confirmation with higher IL-18 doses (Example II); conditions: for tumor weight and nodule count: Day 14
Method: This experiment included the use of higher doses of IL-18. […] The remaining mice were continued under treatment and monitored for survival. Topotecan was administered intraperitonealy q4D×6 on Days 7, 11, 15, 19, 23, and 29; dosage levels shown are mg/kg. Murine IL-18 was administered intraperitonealy qD×26 from Day 7 to Day 33; dosage levels shown are μg/mouse.

MOPC-315 plasmacytoma [12] = test: advanced MOPC-315 plasmacytoma, schedule and route study (Example V); assay type: in vivo, mice
Method: The evaluation of IL-18 in combination with chemotherapy was repeated to establish: (a) how effective is IL-18 in tumor models when given subcutaneously and (b) whether IL-18 is active when given on an intermittent schedule or whether daily treatment is necessary. The experiment was set up again with topotecan in the advanced MOPC-315 plasmacytoma model with treatment starting on Day 10 when tumors were about 100 mm^3 in volume. Topotecan was given at its MTD of 15 mg/kg on a q4D regimen and IL-18 was given over a broad dosage range either intraperitonealy or subcutaneously on a q1D or q4D regimen. […] However, IL-18 was continued. (See FIGS. 11-13).

colon 26 adenocarcinoma = conditions: Hanaya et al. 1996; cited from earlier work
[13] = cyclophosphamide MTD 300 mg/kg q7D
[14] = topotecan MTD 15 mg/kg ip q4D from Day 11
[15] = topotecan MTD 15 mg/kg q4D, Day 16
[16] = topotecan 9 mg/kg ip q4D×6 from Day 7
[17] = topotecan 15 mg/kg ip q4D×6 from Day 7
[18] = IL-18 0.3 μg/mouse ip UID Day 7-32
[19] = IL-18 1 μg/mouse ip UID Day 7-32
[20] = IL-18 3 μg/mouse ip UID Day 7-32
[21] = IL-18 10 μg/mouse ip UID Day 7-32
[22] = IL-18 alone 0.3-10 μg/mouse ip UID, Day 16, no clear dose-response
[23] = IL-18 1 μg/mouse ip qD×26 Day 7-33
[24] = IL-18 3 μg/mouse ip qD×26 Day 7-33
[25] = IL-18 10 μg/mouse ip qD×26 Day 7-33
[26] = IL-18 30 μg/mouse ip qD×26 Day 7-33
[27] = IL-18 100 μg/mouse ip qD×26 Day 7-33

O=P1(N(CCCl)CCCl)NCCCO1 (stereo not shown) [Cyclophosphamide, cyclophosphamide]
increase in survival (B16F10 melanoma [1]; [13]): 95%
tumor growth delay (B16F10 melanoma [1]; [13]): 14 days
tumor growth delay (B16F10 melanoma [2]; cyclophosphamide MTD): 14 days
tumor growth delay (B16F10 melanoma [2]; cyclophosphamide suboptimal dose 180 mg/kg): 4 days
regressions (B16F10 melanoma [2]): no regressions

COc1cccc2c1C(=O)c1c(O)c3c(c(O)c1C2=O)C[C@@](O)(C(=O)CO)C[C@@H]3O[C@H]1C[C@H](N)[C@H](O)[C@H](C)O1 [Doxorubicin, doxorubicin]
regressions [3]: no regressions
tumor growth delay ([3]; doxorubicin 7.2, 12, 20 mg/kg iv): dose-dependent tumor growth delay
efficacy ([3]; doxorubicin at 1/3 of its MTD): little or no efficacy
weight loss [4]: no weight loss
MTD ([5]; mouse, in vivo, iv): 20 mg/kg

CC(=O)O[C@H]1C(=O)[C@@]2(C)[C@H]([C@H](OC(=O)c3ccccc3)[C@]3(O)C[C@H](OC(=O)[C@H](O)[C@@H](NC(=O)c4ccccc4)c4ccccc4)C(C)=C1C3(C)C)[C@]1(OC(C)=O)CO[C@@H]1C[C@@H]2O [Paclitaxel, paclitaxel, reference compound]
regressions [6]: no regressions
ILS (increased life span) ([6]; paclitaxel 12 mg/kg iv qD×5): 27% ILS
T-C: tumor growth delay ([6]; paclitaxel 12 mg/kg iv qD×5 (Days 9-13)): T-C 3.5 days,
ILS (increased life span) ([6]; paclitaxel 24 mg/kg iv qD×5): 35% ILS
T-C: tumor growth delay ([6]; paclitaxel 24 mg/kg iv qD×5): T-C 9.7 days,
survival ([6]; paclitaxel alone): minimal prolongation of survival
tumor growth delay ([6]; paclitaxel alone): minimal tumor growth delay
body weight loss [7]: 4.7 g

CC[C@@]1(O)C(=O)OCc2c1cc1n(c2=O)Cc2cc3c(CN(C)C)c(O)ccc3nc2-1 [Topotecan, topotecan, reference compound]
regressions (MOPC-315 plasmacytoma [8]; topotecan 9 mg/kg ip q4D): no regressions
tumor growth delay (MOPC-315 plasmacytoma [8]; topotecan 9 mg/kg ip q4D): 4 days
complete regressions (MOPC-315 plasmacytoma [8]; [14]): 1/7
tumor growth delay (MOPC-315 plasmacytoma [8]; [14]): about 12 days
complete regressions (MOPC-315 plasmacytoma [9]; topotecan MTD alone ip q4D×6 from Day 10): 2/6
effect on tumor (MOPC-315 plasmacytoma [9]; topotecan suboptimal dose alone): virtually no effect
antitumor activity (B16F10 melanoma [1]; topotecan at its MTD): inactive
Increase in Lifespan (Lewis lung carcinoma [10]; topotecan 9.0 mg/kg (0.6×MTD) ip q4D×7 from Day 7): 63%
Median Survival Time (Lewis lung carcinoma [10]; topotecan 9.0 mg/kg ip q4D×7 from Day 7): 36 days
Increase in Lifespan (Lewis lung carcinoma [10]; topotecan 15 mg/kg (MTD) ip q4D×7 from Day 7): 68%
Median Survival Time (Lewis lung carcinoma [10]; topotecan 15 mg/kg ip q4D×7 from Day 7): 37 days
average number of pulmonary tumor nodules (Lewis lung carcinoma [10]; [15]): 45
suppression of tumor growth (Lewis lung carcinoma [10]; [15]): > 90%
Increase in Lifespan (Lewis lung carcinoma [11]; [16]): 42%
Median Survival Time (Lewis lung carcinoma [11]; [16]): 25.5 days
Increase in Lifespan (Lewis lung carcinoma [11]; [17]): 86%
Median Survival Time (Lewis lung carcinoma [11]; [17]): 33.5 days
tumor weight and nodule count (Lewis lung carcinoma [11]; topotecan MTD 15 mg/kg): good reduction in tumor weight and nodule count
tumor weight and nodule count (Lewis lung carcinoma [11]; topotecan lower dose 9 mg/kg): lesser effect on both parameters

B1: IL-18: cytokine, interferon-γ-inducing factor; murine IL-18 (SEQ ID NO:2) was administered to mice (protein)
chain: NFGRLHCTTAVIRNINDQVLFVDKRQPVFEDMTDIDQSASEPQTRLIIYMYKDSEVRGLAVTLSVKDSKMSTLSCKNKIISFEEMDPPENIDDIQSDLIFFQKRVPGHNKMEFESSLYEGHFLACQKEDDAFKLILKKKDENGDKSVMFTLTNLHQS
modifications: Mouse
tumor growth delay (MOPC-315 plasmacytoma [8]; IL-18 alone 0.3, 1, 3, 10 μg/mouse daily ip from Day 11): 1.3 to 3.1 days
effect on tumor growth of established tumors (MOPC-315 plasmacytoma [8]; IL-18 alone 0.3-10 μg/mouse daily ip from Day 11): only a minimal effect on the tumor growth; also recorded: no effect of IL-18 alone on tumor growth
complete regressions (MOPC-315 plasmacytoma [9]; IL-18 alone 100 μg/mouse/day ip qD×30 from Day 10): 4 of 6
effect on tumor (MOPC-315 plasmacytoma [9]; IL-18 alone, doses lower than 100 μg/mouse/day): ineffective
antitumor activity (MOPC-315 plasmacytoma [12]; IL-18 alone q1D 100 μg/day, ip and sc): active
route comparison (MOPC-315 plasmacytoma [12]; IL-18 alone q1D 100 μg/day, ip versus sc): intraperitoneal was more effective
induction of regression (MOPC-315 plasmacytoma [12]; IL-18 alone, intermittent, 1000 or 100 μg/dose): ineffective in inducing regression
ILS (effect on survival time) (B16F10 melanoma [1]; IL-18 alone from Day 11): < 30%
effect on tumor growth (B16F10 melanoma [1]; IL-18 alone from Day 11): no effect on tumor growth
tumor growth delay (B16F10 melanoma [2]; IL-18 alone): about 2 days
regressions (B16F10 melanoma [2]): no regressions
T-C: tumor growth delay ([6]; IL-18 1 μg sc qD×21): T-C 1.7 days,
ILS (increased life span) ([6]; IL-18 10 μg sc qD×21): 12% ILS
T-C: tumor growth delay ([6]; IL-18 10 μg sc qD×21): T-C 2.1 days,
ILS (increased life span) ([6]; IL-18 100 μg sc qD×21): 0% ILS
T-C: tumor growth delay ([6]; IL-18 100 μg sc qD×21): T-C 2.8 days,
tumor growth ([6]; IL-18 alone at the low dose): without delaying tumor growth
regressions [6]: no regressions
tumor growth delay ([3]; IL-18 alone 1-100 μg/mouse, no dose-response): less than a week
regressions [3]: no regressions
Increase in Lifespan (Lewis lung carcinoma [10]; [18]): 0%
Median Survival Time (Lewis lung carcinoma [10]; [18]): 22 days
Increase in Lifespan (Lewis lung carcinoma [10]; [19]): 2%
Median Survival Time (Lewis lung carcinoma [10]; [19]): 22.5 days
Increase in Lifespan (Lewis lung carcinoma [10]; [20]): 4%
Median Survival Time (Lewis lung carcinoma [10]; [20]): 23 days
Increase in Lifespan (Lewis lung carcinoma [10]; [21]): 9%
Median Survival Time (Lewis lung carcinoma [10]; [21]): 24 days
effect on survival time (Lewis lung carcinoma [10]; IL-18 alone 0.3-10 μg/mouse ip UID): no effect on survival time; also recorded: did not have an enhanced median survival time
lung tumor nodule count (Lewis lung carcinoma [10]; [22]): significantly decreased
lung tumor weight (Lewis lung carcinoma [10]; [22]): significantly decreased
metastasis and growth of tumor (colon 26 adenocarcinoma): inhibit the metastasis and growth of colon 26 adenocarcinoma
toxicity ([5]; IL-18 1 μg/mouse qD×21 from Day 12): Not Toxic
toxicity ([5]; IL-18 10 μg/mouse qD×21 from Day 12): Not Toxic
toxicity ([5]; IL-18 100 μg/mouse qD×21 from Day 12): Not Toxic
Increase in Lifespan (Lewis lung carcinoma [11]; [23]): 11%
Median Survival Time (Lewis lung carcinoma [11]; [23]): 20 days
Increase in Lifespan (Lewis lung carcinoma [11]; [24]): 0%
Median Survival Time (Lewis lung carcinoma [11]; [24]): 18 days
Increase in Lifespan (Lewis lung carcinoma [11]; [25]): 0%
Median Survival Time (Lewis lung carcinoma [11]; [25]): 18 days
Increase in Lifespan (Lewis lung carcinoma [11]; [26]): 3%
Median Survival Time (Lewis lung carcinoma [11]; [26]): 18.5 days
Increase in Lifespan (Lewis lung carcinoma [11]; [27]): 22%
Median Survival Time (Lewis lung carcinoma [11]; [27]): 22 days
